Experimental data from the domain aggregation screens of Martell et al. (2025).

Assay: soluble fraction after stress (log2 fold change); higher = more stays soluble; pooled small domains, quantitative proteomics
Conditions: stress: pH 4
In short: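 Custom libraries of small protein domains were pooled and exposed to pH 4. High-throughput quantitative proteomics then measured the log2 fold change in the amount of each domain still soluble, with higher values meaning more stayed soluble. This soluble-fraction fold change stands for aggregation propensity.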

Point of comparison: “HMFPATAPQLKAVHAILGKQGISDELDKLARVNEWLVGLNKEPVAAISELDKHTTSGLIDHLQGELNE”, “soluble fraction (log2)” value -0.131. Against it:
- HMFNPEQDPKQLTGRERAVADLIGLGANNAEIAIRLSMSERTVKAHLTSIFQQLNVRDRVQLALVMNQL — lower, -0.541
- HMFPASQPVPTDLNQIVRAGLEVFSGRLEGIDVRVSLEPELPRVNVDPEHFKRIVVNLVDNAAEAMQNS — within 0.2 log units, -0.0189
- HMFPDLSPEQQRIVDVLTKSNDLQLNQLSVKTGIPIGDITSILFQMEMMGVVKPMAGGNYHLL — within 0.2 log units, -0.0768
- HMFPDLTEDEQLIVDVLQRTGDLQINSLIVEANIPVNKMSEILFELEMKGVIRTLAGGVYQLL — lower, -1.84
- HMFPDRLRELRKGRNITLETLAEEMNKHLEPGQKPNTAAQIGNWERGDRSPSYIEVRKLADFFNVSMDFL — lower, -0.512
- HMFPELNAEETQVVQLLQKQTEGMQVNSLVVESNIPITRMSGILFELELKGIIRNYAGGVYKL — lower, -0.951
- HMFPELSEEAKVIVDALSKENDQQLNVLIANTGMAVGTMQAKLFELEMQGVVKPLAGSVYHLM — higher, 0.22
- HMFPELTDDEQLIVSTLAKTNDMQINMLAVRTGIPVQRMSALLFSLEMKGVVKMYAGGTYHLL — within 0.2 log units, -0.0499
- HMFPNQLLISRLSNQLSASERFAAVSSIAQLKNIDYDVLHVLVHTMNSDPNSNVRLAALEALSR — within 0.2 log units, -0.313
- HMFPQQGEIRQGVIASITPDQILVNVGTKSEGIISGKELEAISKSERDSLNVDQKIAVYILDPEDSNG — lower, -0.391
- HMFQNPSQVVTTRVGELRAAIPTAQQGRITMGVAVVEDANSVRSVLISTSEPRGYLRPGVTLGPGETMV — higher, 0.106
- HMFQPFFENLRKASIPVSLREYLTFLEGMKKGLVTYDIEAFYFLARAAMVKDERNIDKFDRAFSATFKG — within 0.2 log units, 0.0456
- HMFQTAADVAYRIISQKILDGEFPPGMKLSRRKMAEVTSVSVIPVIEALKKLEEDGLVESKPQWGSFVTI — within 0.2 log units, -0.246
- HMFQYEKIKDYILTGLEEGTWQAGDKIPSEAELVMSLNVSRMTVNRAVRELANSGLLVRIPGAGTFVATE — lower, -0.886
- HMFSIDRNIRRLRKEAGLTQEELAQKLFVTRQTISLWELGKVHPDLETLQKLAEQFQVDLLQVLYGPE — lower, -2.41
- HMFSLDMDRLVRPGFMASGNVTFSDGVTGKWALDQMGRLALETAQKGYQPSPADVQAFQRELQQQLQRQG — within 0.2 log units, -0.178
- HMFSPTKLKEKRESQGLSQSQLASSLGISRASYFNWESGKTKPNQNNLSKLSEILNVDPRYF — within 0.2 log units, 0.0274
- HMFSSVSVPAELSNQRFDKVVAELTPDLSRSKIKQLILLGKVLLNGEVTPPKQKVETGDEIEIFYTRQIE — within 0.2 log units, -0.23
- HMFTLDIGTIIRNRRLELNLTLEEIGNAVGVSKSTVQKWENGFISNMKRDKISALAKVLNINPVTLITGEY — lower, -0.711
- HMFTLNEIIGQKIRNARISAGLTLDELSKMTGISAAQLSSLETGYRRANIDTLYAIAKAIGIDVSNLLKY — lower, -0.626
- HMFTRFTVAQDGWTIGGFTAKEMAVSTAKQHAVDTGKPVTVVAHVAGGGSREAIFNSDGTNDKIWN — higher, 0.157
- HMFTYEETIGKSADVYLTIPALKAGKGKIIISVRGSVHELDAMTNNAEKISTGAVVKIVRIEHGNILLVEN — lower, -0.44
- HMFVEKDSIINKGNNSYNFVITDNNNKVLVEYNGLLPDLFKEEQGVVIEGRLKSDFIIHAFTVF — lower, -0.462
- HMFVGVDMAVKEEIGKEGVAFTDLRPAGKVSIGDDVYDAVSETGAFITRGTSVRVLKYQAGQVYVVK — higher, 0.354
- HMFVTFFHELKSAGVPVSLREYLTLMEAMDRDLASRRVEEFYYLARTALVKDERNLDKFDRVFGHVFKGL — lower, -1.69
- HMFWVESDVDFVDKTSAHNAIKENERVIGMYISYRLNGTWTTEQYVGIDTSKDNWENPDNWNIL — lower, -0.381
- HMFYLPEPLTEQELRILGMLLDGRSNPEIAAELFIAVGTAKWHVHNILQKLGVANRAQAIVKAHELGLT — lower, -1.88
- HMFYNELMNFIVYKDSQKIGKIVNINDKLPQPVFEVLINDKKFMVPIHDDFIEKIDKEKKSIHIVIPDGLL — lower, -1.01
- HMFYWTDLIGLDVINTADERLGKVVGLIETGANAVLRVMGDDQVERLLPFGSAVVLTVEKEAGQIRVEW — lower, -2.05
- HMGAARVTPLYNLRLREGPSTATARLDVVPRGTTLEVRAWDETGDWAQVEYRGQIGWIAAWLAEVEGEAP — lower, -0.739
- HMGADSFTGYTPIHKIDNPSDGINDGASYVVYFQKDGTDPTEFYKAVNANASTLAQLTSGTEYDLASSKKL — lower, -0.722
- HMGAEIRDKVRAALAGLNPRAAEIFVMRYFDGYGNREIARLLNTSWSTIAVTLHRTRAKLQKELK — within 0.2 log units, 0.0552
- HMGAGDKQAQQASLMQIIALQKEGMALGLVEPKHLYHSFSKMIENAGFKDVQSFAVDPSTQQ — within 0.2 log units, -0.199
- HMGAGEQMLPKVMFAEGDRVVHKVFGEGTVVTVDRPAQTYDIQFDKLRGTRRIMFRAELEGI — lower, -0.922
- HMGAGLDDLVRKSLHNAGLKADDNVVSWISGNLGSDRMVSRMELEKLVLFVAGQSEITLEDAQAVIGD — lower, -0.374
- HMGAGLKIGNDHEYANYLEYKVSVEKYAPGAILGEIKQKGIQFNTTISKTTFYRYITDGVFLTITNADLPV — within 0.2 log units, -0.138
- HMGALTGQERRAEIMNILRQSTMPLSGAALGKQLGVSRQVVVQDIALLRQSGEEIYATNRGYVTG — higher, ≥ 0.43
- HMGAQPLIEPLSERELEVLALIAEGLTNAEIGRRLFIATGTVKRHVNTIYGKLDVHGRIEAIARARDLHLI — lower, -0.66
- HMGAQRDFELQLIDVIRQNPGLTYKAYGEKLSVSQATVKRLVAKLKETGSIRREGSQRKGTWIITDD — higher, 0.252
- HMGARWPIQDRPLTATEAAAVRRMYAGGLPHGRSKNSVITEVWGDLSNKPKRLDWLNQALEGGA — higher, 0.357
- HMGASGVEVPDVAGMSTAQAVSSLEQKGFVVNRTESYDAGVEKGNVISQSPEGGTKAPNGSAVTIRISQGA — higher, 0.081
- HMGASIQITVNNTPVMLKNKTHYTLVDVLDFYPFDLSKMGGTELYTAINGVKSGFTDPVHANDSIEIYWI — higher, 0.196
- HMGASSLVGRSARVLQAVTDSDGRIKLAGETWSARLAAGATSTVGPGEEVRVIAIHGATAIVAPV — higher, 0.0834
- HMGASVGEVESVKTASEIYTAAAGKIVAVNDAVAKDPSLVNSDPYGNGWLVKLEIADLSAINA — within 0.2 log units, -0.304
- HMGAVDIATARQLISEIGLPIMLKAEGGGGGRGIFAIHNEAELEDAFFKASTMAQASFGNPRLFVEKF — lower, -0.985
- HMGAVFEFIMEEEEPERIDKLLSSALPDLSRSYLQKLVKEGAVLVNKKEVKPNHKVNPGDVVEISVPEPE — lower, -0.744
- HMGAVGISQKVTSLETAVLGKNFAKDPLIDRVARLEQTVLPKQAEANASLSLPERVSKLLEKVPIAAG — higher, 0.136
- HMGAVPKNYFPAVEKGLQDSVQKGLLAGYPVVGVKAILYDGSYHPVDSSEMAFKTATIQAFKKGFMEA — within 0.2 log units, -0.0216
- HMGAYIPSYAPVDINAATHTVVRGDTVYNISKRYHVSQEDFRAWNGMADNTLSIGQVVKVKPAGYTAPK — higher, 0.22
- HMGDAVSRAYFALADDLLKGELTETVSEVLIRTRYELTSAQLQAVLHRIAQEGWAHKKPGYGWEFSAMLT — lower, -1.39
- HMGDEHYDTISAFIKSVRGSDPDAALYWLAKMILAGEDPRFILRRLIVLSGEDIGLADPQGI — lower, -0.346
- HMGDEPGAGYKWREDVLLRVMSEHGIDESARDDFVRHAVKFDDDDNLYLKKAEIIAAAEAWESSS — lower, -2.05
- HMGDFLLQVDFPPALLEMLPEGKRQAAIGVLSHDPRPAYQRTPGRVYGLNFAGHNIRFAVSENLLTVLEV — within 0.2 log units, -0.302
- HMGDFLLTPHRGRSADFVIGNPPYIRLEDVPNDISDAYRAEYASMPGRADIHVGFYEKGLDL — lower, -0.506
- HMGDFVIVPDLIGKTIEEFDSELNELNLKYIISDSGNYNPDFKINSVLDQLPNANSKVKGGRKIYITLNAS — lower, -1.48
- HMGDGAWQQGEGGRWWYKYNNGTYPKDRVVTIGGKKYGFDSEGWMLSDTTKAFGGTTYSFAADGVATAQA — within 0.2 log units, -0.247
- HMGDGYTYYYDDTVLALGFTKIGNDYYIFNTFSGKMYKDATMWVNDNPYGIKGGMHYFDASGKMFV — lower, -0.439
- HMGDIFTAEDAKERIDYSGVDGIMLARGIFGNPWLIRDIREYLEYGKILHPVTQLDRVNMAIEHTRKT — within 0.2 log units, -0.25
- HMGDIMLLFKENGKVYFLVGNQYTYVKNPTELSAIKTMMKQAGYDTHEHTNTTQVAYIKRLATE — lower, -0.419
- HMGDKVLIQTAQRLKKDLPFASIVSRFGGDEFLIFLPGISSTERVETIVKKTVFLFIAISTTLF — within 0.2 log units, -0.0999
- HMGDLKSLIQATMDDAGISIKPDAMDYLISHLGSDRLTTRAELDKLILYAGADDKLDLDSVVELVG — lower, -0.794
- HMGDLLTVDRVAATSGLGVDTIRYYQRLGLLDPPVRHGRRALYSTAHLDRLVEIRQLADEGFSLAQIATL — lower, -0.816
- HMGDLVFDFVHGVHKAAEVEKELVMQALRFTHGNVSRAARLIGMQRSSLRYRIERYRLDAFVMEVAN — within 0.2 log units, -0.0309
- HMGDPSSERNIQKSIFILIGEKALSVQDISRSLGMPNDIIDKALISGVERNLWLSSDKGEYYL — lower, -1.04
- HMGDRRSVFEQSVLDAIKSLVKQGELATTKAISDHIGTNYQGNVSRAITALLADNKIKKLPKEGVLQPYEA — within 0.2 log units, -0.00881
- HMGDSFLDHKKELQSMILSRLDLSREVPDEEIKDIIDELIIAQSKKLFLSLNDRGKLRQELFYSIRK — lower, -0.906
- HMGDSVLNDKLNTLAGLDEERFKWVLASLNPNNSYSTHSDKMSALMWLVSYFNDEADLKETVPPLPI — within 0.2 log units, -0.325
- HMGDTIFINNNFYVKHIVEFGETIDIISKIYDVSVNKILETNETSTKLYSGQSLFIPININV — lower, -1.99
